Data from PMC12307675.
pKd: −log10 of the molar value.

Molecular target: recombinant SARS-CoV-2 spike protein (SARS-CoV-2) (UniProt P0DTC2)
Experiment: SPR

Substance	pKd
HMGB1-A box (aa 1–79), 6x His-tagged (from UniProt P09429 1-79) (domain or fragment)	5.21
HMGB1-B box (aa 89–162), 6x His-tagged (from UniProt P09429 89-162) (domain or fragment)	5.99
acidic C-tail-deleted HMGB1 (HMGB1-ΔC, aa 1–186), 6x His-tagged (from UniProt P09429 1-186) (domain or fragment)	5.86
full-length HMGB1 (HMGB1-WT), 6x His-tagged (from UniProt P09429 1-215) (natural protein)	5.45
